Measured values published in the supplement of paper PMC12764529.

Test: folding stability dG unfold (combined trypsin and chymotrypsin); higher = more stable
Method: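 Folding stability of de novo designed mini-proteins (<80 aa, no Cys; designed by TrROS, TrMRF, ProteinMPNN and the joint model) was measured by cDNA display proteolysis with trypsin and chymotrypsin. Each protease was used at 11 concentrations in a threefold dilution series plus a no-protease condition. K50 was inferred by Bayesian fitting of sequencing counts, and dG unfold was derived against a sequence-predicted unfolded-state K50 (Tsuboyama et al. method). Sequences shown include variable-length N-terminal GS-type padding (SAGGSAGG...) inside a display construct carrying a PA tag. Rows were kept only if the AF2 dimer inter-PAE was >15, to exclude likely homo-oligomers.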

Sequence | folding stability dG unfold
SAGGSAGGSAGGEIKVRIDEYDPPSGFFRIEPPDGRTRQIPVPPGMNPEDLKGDTVTLKPSAGGSAGGSAGG [r7_296_TrROS] | < -1 kcal/mol
SAGGSAGGSVKELAKKAGIKDIDVEPHPNDGWVEIKITMKNPKNGKKREGNILIRDPKDGEPLSAGGSAGGS [r12_133_TrROS] | < -1 kcal/mol
SAGGSAGGSKILEIERDPEKGLVKITVPPDVPPNPHPRLLKVEPKNNKYIVTFPMSPSDEIELSAGGSAGGS [r20_37_JUSTAS] | < -1 kcal/mol
SAGGSAGGQKIKIDDVQKNPGNGNYYVRIRPPGKPYEYQFPPGDSADDIADELELNGIDDIEVYSAGGSAGG [r6_83_TrROS] | < -1 kcal/mol
SAGGSAPPPKMKRIELKVEDPEHGYEVRVEVMIYPNDSISIQYESPNGKPLPKERAQKLLKELGIESAGGSA [r15_872_TrROS] | < -1 kcal/mol
SAGGSAGGSAGSEKLEKIKEELKKKGYNDVEVKPAGPDPSVVLVKVKENKDIIIKIENEESAGGSAGGSAGG [r11_765_JUSTAS] | < -1 kcal/mol
SAGGSAGGSKLKIEQDPSDGFLQIQIPPGDEEVKIKFNGEEIEFPLPPGQPIWIPANNWKIEPSAGGSAGGS [r20_26_TrROS] | < -1 kcal/mol
MVISPALLREARRAGISDEFLKKAGDVIIPSEVANPEEVKELLAHPGVKKVYPVPPEDPEKLAAAKVVLPGS [r1_248_TrMRF] | < -1 kcal/mol
SAGGSAGGSSMTPVSSTRSSPSNSVTYTTSRIPIDPSPGKVLNVTTTYSPDPSVTTTTTTVEPSSAGGSAGG [r6_13_JUSTAS] | < -1 kcal/mol
SAGGSAGGSAGDLGLEDDTFILKATYPDGTPATIPLKKSEISKISKDNIKSIEFYPKSKLSAGGSAGGSAGG [r11_779_JUSTAS] | < -1 kcal/mol
SAGGSAGGSMSIPSDATLVRTYRRGGEELTVSGSVDPATGTVLSEGSLSKRPDATLTEVSVVSSAGGSAGGS [r12_6_JUSTAS] | < -1 kcal/mol
SAGGSAGGSVKITRTPNGYYTVKIEDPGGVPVEIPVPADDPGMTNKEAEDEVKPIAKEFKRLKSAGGSAGGS [r12_642_TrROS] | < -1 kcal/mol
SAGSVTATITLPSGETVTVDVAPDEERILTTPEGRLLRLTDVRPGAVAFTEGENFVPDEDGNLVPLSLLSAG [r5_417_JUSTAS] | < -1 kcal/mol
SAGGSAGGSAKIKLENPDNMPPEELADTIAEEAREQHPDDKNIEIPFQFPNGNPWRITVDVPSAGGSAGGSA [r18_449_TrROS] | < -1 kcal/mol
SAGIKEIAKKLGMPPNNIKIKNIQPQPRRKPDPEDGKPEPEPYPTVSVEIEAPGNGKKREASIPADEIQSAG [r5_517_TrROS] | < -1 kcal/mol
SAGASLAPGESAAFTVTTTTTTTESLPLPDGTTVTTTSTTTTTTAHTVTFPAVPVVTMPPDATDPAVRASAG [r5_770_JUSTAS] | < -1 kcal/mol
SAGWKIKIYPPNGQPQEIPIEDAKEIAEELAEQGNVQITPDGDIYIPFPMKDPEDGKPHQMYIQIERDKSAG [r5_243_TrROS] | < -1 kcal/mol
SAGGSAGGSATLEQIKEAIKDSPPGEPARIPFPNGYTIRIDMRYDKEENKIDDFDIEIEPPNSAGGSAGGSA [r18_202_TrROS] | < -1 kcal/mol
SAGMPPVRVVQAPSTVYTDPSPPTLTVESVFTGEGRLSTTSSTVPAPPELADLPAGAAVSRSFTVTVLPSAG [r5_714_JUSTAS] | < -1 kcal/mol

Sequence | folding stability dG unfold
SAGGSAMTLVEEVPVAPGTLVEAESIAVSPEGKIYRSRVEGLEPGRARVTVPVEELPGNLEDPELISAGGSA [r15_909_JUSTAS] | < -1 kcal/mol
SAGPLKPGKTIEVPMEFTSPSDIVDELEKLPGIKDIEPTGIEPEPNPDGPPRIRVPFTFKIPKDGEPLSAGG [r19_221_TrROS] | < -1 kcal/mol
SAGGSAGGSAGMMTLKTGSVTIVRPVPAEEAPAPPEVPGAEELTRTEVVKTEVELLPAELLSAGGSAGGSAG [r3_488_JUSTAS] | < -1 kcal/mol
SAGGSAGGSAGGMPELEKEGYKVEKFTIFEPDPLKPVGEVTVLTEVPKPKLLEGGSTSGLSAGGSAGGSAGG [r7_959_JUSTAS] | < -1 kcal/mol
SNMPIFVRIEHNDGKEVEIPIKGSREQLKDNIQEEIQEYAQENGHKPRSIKVEVYDFGNNQEQTRTIPVKSA [r9_1193_TrROS] | < -1 kcal/mol
SAGGSGNPNAPVPYIPKGYKTVPIPLKGDPNASEEELKKKLEEAKEKIKKEIDPTPDGIPIEINEGSAGGSA [r2_149_JUSTAS] | < -1 kcal/mol
SAGGSAKVTVDEKDLKVTVESNIPVLVTYTLPGGKKKPFAGYLPPEKIEEFAKKEAEKFATELLGKSAGGSA [r15_365_TrMRF] | < -1 kcal/mol
SAGGSAGGSAGGPYLRIKWKHPENGKTREIEIPFEGKPLEEIADNIKKEHGMTVTDIEPVSAGGSAGGSAGG [r7_590_TrROS] | < -1 kcal/mol
SAGGSAGGSAGGELVLPELNKPLNVEKEEVVVEGGEEVVKIKATGSGKPFEYVVPKGLGSAGGSAGGSAGGS [r10_517_JUSTAS] | < -1 kcal/mol
SAGGSAGGSPKEYYIRVKDPEKAKEIMKPLGWPIKPGDEFPIKDPEDILEKLPGIEGIEIHPVSAGGSAGGS [r12_571_TrROS] | < -1 kcal/mol
SAGGSVEISEEELEKLIEEGRVDKKEEYPEGVPSKKYETEKLGKELGKPITINVTTTPDGKAVAKVLKSAGG [r13_163_JUSTAS] | < -1 kcal/mol
SAGGSAGGSMTFKLKDGKVITYDPANPTLHFPGPPETIPTGGANIAQTIADLKAKGFDYEEVVESAGGSAGG [r6_340_JUSTAS] | < -1 kcal/mol
SAGGSAGGSAGGMKVTVETFEGPDFEIVTERSPEGKVKVFTIKPNEVKEEVIPLENPELSAGGSAGGSAGGS [r10_1169_JUSTAS] | < -1 kcal/mol
SAGGSAGGSAGEITIRMPMPDPDGGRRRIQFTIEKIKLPPGQKIKIVSVGPNGSFTIKPKSAGGSAGGSAGG [r11_733_TrROS] | < -1 kcal/mol
SAGGKITITLPNGAKIEIEEEEVEVDGKTYLVFKAKITNKDGSKYLITVVIDKKTKEIVSISIEKLPSAGGS [r8_492_TrROS_Hall] | > 6 kcal/mol
SAGGMRVDYKSGKVIPEKTITIERTFSPEVVKTEEDAIELAKQEAEEAGLKDIDLKVELEGDKITVVGSAGG [r13_130_JUSTAS] | < -1 kcal/mol
SAGMTPEELEAGRPVERTIPLEIQHPEGNPIATYNITGTLTMEELKKLKEEIREEAKKKGIPPNLNTSLSAG [r5_606_JUSTAS] | < -1 kcal/mol
SAGGSAGGSAGGMITVKDPATGKWREVTPEELEEVLAANPGPITVEREGGRRTVPAALLSAGGSAGGSAGGS [r10_839_JUSTAS] | < -1 kcal/mol
SAGGSAGGSAGGSGVRLRFPADYPELVEKLAKAFGLKPKSFNPDTGEVDIGNEPGAKIVSAGGSAGGSAGGS [r4_3_TrMRF] | < -1 kcal/mol

Sequence | folding stability dG unfold
SAGGSAGGSAGGPDVEKYPFKFPGKKFKIQRNPDDPDSYMISFPPGKTETFPLDDIKPLSAGGSAGGSAGGS [r10_556_TrROS] | < -1 kcal/mol
SAGMVKIKIYVENPETGEEKELEIVKEFESEEEAEKEAEKIAKELEKAGYKVKKIEIEVIPLPPLPENPSAG [r5_660_TrMRF] | > 6 kcal/mol
SAGGSAGGSAGGIYIPMDDLKKNGMSIEQFADKLGHPVEIEVERNEPGSPVFKIEPDAKSAGGSAGGSAGGS [r10_855_TrROS] | < -1 kcal/mol
SAGGSAKIVIPGMSPSMIRHAIKEGVKKIHIVWPNPEQAKGFKKELEKEDGIPIKVVPAEEAKKLESAGGSA [r15_243_TrROS] | < -1 kcal/mol
SAGGSAGGSAGGSNIKELAKELWDKNPGPRPIRFKGNGYKIRFQMPPEGRLRPVEIEKNSAGGSAGGSAGGS [r4_438_TrROS] | < -1 kcal/mol
SAGGSAGGSAGGMVTIETPDEKYEITPTPEDRVLTKVYKKGKEIIKTKDPNSDKTEILDESAGGSAGGSAGG [r7_683_JUSTAS] | < -1 kcal/mol
SAGGSAGGSMPYEVTITDPNSDRTRTRKVSGDSPEISEAVPPSHTVTLTFGGTKTTLPVPALSSAGGSAGGS [r20_36_JUSTAS] | < -1 kcal/mol
SAGGSAGGSVVPIEYDEDGMLKIEHRNNDKKREHTIPADDADEMPPDFLKDLPPDKIDEITPYSAGGSAGGS [r12_793_TrROS] | < -1 kcal/mol
SAGGSVDVDEEEAEKLIEEALKKGLEVTITARLPDGGVRVLKYEGPDRKRTVIEELPVPPSPLNPALLSAGG [r13_839_JUSTAS] | < -1 kcal/mol
SSVNWKVLETKEEPETVVTLLENPENPELIVEVPVKRFEDPDSERREVTKTVWLPATGETLETEPAVIPLSA [r9_18_JUSTAS] | < -1 kcal/mol
SAGGSAGGSAGEPVKIPITIKMRDNGKPREQPFKVEVEPNPDGNTQHKLNMPEGNITEIESAGGSAGGSAGG [r11_816_TrROS] | < -1 kcal/mol
SAGVPVDLHHDPKGVELATSTSYTPSGEPVGSSSSTHTVPGTGTPVSVYSPVYDDGAGLITRTYLAKLSAGG [r19_185_JUSTAS] | < -1 kcal/mol
SAGSEIYEAAKAGKKATVPVETTLTEVTEESVTPLGGPTLKAREVARTTFNAKLTKFDPKTGKITTDLPSAG [r5_5_JUSTAS] | < -1 kcal/mol
STLENIEYIKLPKNKTLPLPGGETISPDEEIAIDLDKKKYINKEELEELKKKIEEELEKKKPKENPKNLISA [r9_517_JUSTAS] | < -1 kcal/mol
SAGMKITFPDGFKEIEVYEDPNYPYIEIPLPGGSIRYDLKDGPIEIEPPGDNRPIRFPIPPGDTITLPSAGG [r19_138_TrROS] | < -1 kcal/mol
SAGGGMKKYTESTVPLPPGRPDVVERLRAEYPNLEVEREGPADTGTLPTTVKVPAPDGSPLASIELGSAGGS [r8_267_JUSTAS] | < -1 kcal/mol
SAGGSEEFEFRDPFNGEEFEVTRDPNNGELDVEYPNGWKMRISITDDRFEIVEMKPVPPPPVDPDQKSAGGS [r16_687_TrROS] | < -1 kcal/mol
SAGGSMPLETLETTGEYVPGTGVYVTKLAVGDPKSDVSFSVTETRPTTDPVTGTPSLYSKPVSFSYKKSAGG [r19_129_JUSTAS] | < -1 kcal/mol
SDEVSRPVDVRYYITLTEPPTSRPRRGPTDELEVESERPVTVTEMPAGQEEAVRAELEPRGVAVSVTPVVSA [r9_1209_JUSTAS] | < -1 kcal/mol
